According to patent US6703198:

Biological target: full-length murine Notch1 expressed on 32D myeloid progenitor cells (murine) (UniProt Q01705)
Test: cell-based or functional assay

full-length murine Notch1 expressed on 32D myeloid progenitor cells (murine), sequence (Q01705 19-2531): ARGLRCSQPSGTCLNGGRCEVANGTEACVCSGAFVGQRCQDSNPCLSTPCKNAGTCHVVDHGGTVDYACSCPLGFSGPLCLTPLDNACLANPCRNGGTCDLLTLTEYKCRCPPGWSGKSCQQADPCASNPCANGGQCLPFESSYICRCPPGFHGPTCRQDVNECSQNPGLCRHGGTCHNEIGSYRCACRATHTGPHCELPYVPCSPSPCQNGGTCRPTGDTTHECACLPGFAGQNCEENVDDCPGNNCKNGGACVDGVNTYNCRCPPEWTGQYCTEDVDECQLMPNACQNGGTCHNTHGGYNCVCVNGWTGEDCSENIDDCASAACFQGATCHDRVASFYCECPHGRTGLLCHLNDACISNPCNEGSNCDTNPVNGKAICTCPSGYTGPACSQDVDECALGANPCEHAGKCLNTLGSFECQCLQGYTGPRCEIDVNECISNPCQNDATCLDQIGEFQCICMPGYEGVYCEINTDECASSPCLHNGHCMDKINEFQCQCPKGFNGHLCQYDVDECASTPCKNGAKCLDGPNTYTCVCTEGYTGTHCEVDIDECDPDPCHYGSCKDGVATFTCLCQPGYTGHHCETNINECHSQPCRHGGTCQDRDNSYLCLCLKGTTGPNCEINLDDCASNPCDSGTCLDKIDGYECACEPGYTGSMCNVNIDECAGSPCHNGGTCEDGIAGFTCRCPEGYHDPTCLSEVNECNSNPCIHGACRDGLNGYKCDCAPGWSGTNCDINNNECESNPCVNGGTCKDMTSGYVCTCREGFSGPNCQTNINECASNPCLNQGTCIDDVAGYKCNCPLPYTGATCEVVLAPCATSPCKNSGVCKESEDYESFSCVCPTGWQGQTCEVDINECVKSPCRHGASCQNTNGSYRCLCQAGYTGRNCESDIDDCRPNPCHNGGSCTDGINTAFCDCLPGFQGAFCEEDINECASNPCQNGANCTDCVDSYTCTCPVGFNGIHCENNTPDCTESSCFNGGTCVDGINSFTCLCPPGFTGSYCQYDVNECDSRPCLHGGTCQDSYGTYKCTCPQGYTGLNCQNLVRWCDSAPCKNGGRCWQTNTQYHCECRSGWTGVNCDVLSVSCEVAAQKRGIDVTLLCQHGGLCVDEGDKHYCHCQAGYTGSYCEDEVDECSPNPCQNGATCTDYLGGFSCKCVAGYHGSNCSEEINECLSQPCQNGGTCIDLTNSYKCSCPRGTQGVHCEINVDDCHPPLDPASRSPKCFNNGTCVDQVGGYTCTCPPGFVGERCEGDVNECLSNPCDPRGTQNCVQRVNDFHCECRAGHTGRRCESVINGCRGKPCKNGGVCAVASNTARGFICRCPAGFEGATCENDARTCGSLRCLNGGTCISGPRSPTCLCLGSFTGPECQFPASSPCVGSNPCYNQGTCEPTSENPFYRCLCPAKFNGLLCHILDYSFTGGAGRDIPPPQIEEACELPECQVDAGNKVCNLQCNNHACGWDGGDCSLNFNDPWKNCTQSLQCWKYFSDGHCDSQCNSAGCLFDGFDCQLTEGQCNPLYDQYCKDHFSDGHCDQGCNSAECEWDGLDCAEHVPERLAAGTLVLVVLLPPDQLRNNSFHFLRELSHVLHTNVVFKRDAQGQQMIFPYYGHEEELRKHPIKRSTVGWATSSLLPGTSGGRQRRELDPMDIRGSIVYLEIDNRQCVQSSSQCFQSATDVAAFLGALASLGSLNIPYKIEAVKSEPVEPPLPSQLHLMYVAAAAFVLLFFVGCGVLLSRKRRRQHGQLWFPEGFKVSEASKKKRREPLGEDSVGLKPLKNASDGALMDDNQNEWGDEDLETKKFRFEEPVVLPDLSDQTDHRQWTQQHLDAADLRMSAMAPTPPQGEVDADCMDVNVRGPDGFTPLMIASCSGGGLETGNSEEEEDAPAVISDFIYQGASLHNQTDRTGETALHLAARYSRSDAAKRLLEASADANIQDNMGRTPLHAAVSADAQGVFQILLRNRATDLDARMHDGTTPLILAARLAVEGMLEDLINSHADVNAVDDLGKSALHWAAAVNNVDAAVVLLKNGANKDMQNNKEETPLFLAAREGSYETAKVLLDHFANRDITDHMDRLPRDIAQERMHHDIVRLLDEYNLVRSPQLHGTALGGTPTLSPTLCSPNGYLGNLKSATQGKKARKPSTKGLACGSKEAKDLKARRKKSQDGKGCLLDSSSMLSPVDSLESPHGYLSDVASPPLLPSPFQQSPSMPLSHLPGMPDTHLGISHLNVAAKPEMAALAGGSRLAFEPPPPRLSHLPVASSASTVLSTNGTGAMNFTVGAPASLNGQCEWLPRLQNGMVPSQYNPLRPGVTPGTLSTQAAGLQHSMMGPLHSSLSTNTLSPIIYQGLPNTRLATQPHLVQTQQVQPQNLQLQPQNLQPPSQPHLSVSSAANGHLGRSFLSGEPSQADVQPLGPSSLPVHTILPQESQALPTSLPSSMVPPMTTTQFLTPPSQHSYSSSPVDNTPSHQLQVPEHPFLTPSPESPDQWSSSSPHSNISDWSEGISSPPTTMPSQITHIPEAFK

- Replating efficiency (FL Notch1 32D clones after 6 days on HS-27a with G-CSF): 190%
- percent of full-length Notch1-expressing 32D cells mature by day 6 on HS-27a in G-CSF: 20%
- percent of full-length Notch1-expressing 32D cells remaining undifferentiated by day 6 on HS-27a in G-CSF: 40%
Substance: human JAGGED1 (hJAGGED1) expressed on HS-27a human bone marrow stromal cells (from UniProt P78504 22-1218) (ligand)
